Test system: K562 CRISPRi cells
Assay: Constant region variant library pooled growth screen, K562
Type: cell-based, human
Conditions: sgRNA constant region variants; activity relative to the original, un-modified constant region cr995
Outline: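 Cells were selected with puromycin for 2 days and then kept in RPMI-1640 spinner cultures, with duplicates handled separately. Targeting sequences comprised 3 sgRNAs per essential gene for 10 genes plus six non-targeting controls. Activities were normalized against pairing with the unmodified scaffold.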

Molecule | Mean relative activity
cr785 (nucleic acid, listed as DNA, chemistry not fully specified) guide: GTTTAAGAGCTAAGCTGGAAACAGCATAGCAAGTTTAAATAAGGCGAGTCCGTTATCAACTTGAAAAAGTGGCACCGAGTCGGTGCG | 0.8378
cr543 (nucleic acid, listed as DNA, chemistry not fully specified) guide: GTTTAAGAGCTAAGCTGGAAACAGCATAGCAAGTCTAAATAAGGCTAGTCCGTTATCAACTTGAAAAAGTGGCACCGAGTCGGTGCT | 0.8231
cr816 (nucleic acid, listed as DNA, chemistry not fully specified) guide: GTTTAAGAGCTAAGCTGGAAACAGCATAGCAAGTTTAAATAAGGCTAGTCCGTTATCAACTTGAAAAAGTTGCACCGAGTCGGTGCT | 0.8315
cr554 (nucleic acid, listed as DNA, chemistry not fully specified) guide: GTTTAAGAGCTAAGCTGGAAACAGCATAGCAGGTTTAAATAAGGCTAGTCCGTTACCAACTTGAAAAAGTAGCACCGAGTCGGTGCT | 0.8332
cr871 (nucleic acid, listed as DNA, chemistry not fully specified) guide: GTTTAAGAGCTAAGCTGGAAACAGCATAGCAAGTTTAAATAAGCCTAGTGCGTTATCAACTTGAAAAAGTGGCACCGAGTCGGTGCT | 0.8313
cr435 (nucleic acid, listed as DNA, chemistry not fully specified) guide: GTTTAAGAGCTAAGCTGGAAACAGCATAGCCAGTTTAAATAAGGCTAGTCCGGTATCAACTTGAAAAAGTGGCACCGAGTCGGTGCT | 0.8281
cr407 (nucleic acid, listed as DNA, chemistry not fully specified) guide: GTTTAAGAGCTAAGCTGGAAACAGCATAGCAAGTTTAAATAAGCCTAGTGCGTTATCAACCTGAAAAGGTGGCATCGAGTCGATGCT | 0.8278
cr162 (nucleic acid, listed as DNA, chemistry not fully specified) guide: GTTTAAGAGCTAAGCTGGAAACAGCATAGCAAGTTTAAATAAGGCTAGTCCGTTATCAACTTGAAAAAGTGGCACCGAGTCGGAGCT | 0.8263
cr289 (nucleic acid, listed as DNA, chemistry not fully specified) guide: GTTTAAGAGCTAAGCTGGAAACAGCATAGCAAGTTTAAATAAGGCTAGTCCGTTATCAACTGGAAACAGTGGCACCGAGTCGGTGCT | 1.102
cr590 (nucleic acid, listed as DNA, chemistry not fully specified) guide: GTTTAAGAGCTAAGCTGGAAACAGCATAGCAAGTTTAAATAAGGCTAGTCCGTTATCAACTTGACAAAGTGGCACCGAGCCGGTGCT | 0.8361
cr919 (nucleic acid, listed as DNA, chemistry not fully specified) guide: GTTTAAGAGCTAAGCTGGAAACAGCATAGCAAGTTTAAATAAGGCTAGTCCGTTATCACCTGGAAACAGGGGCACCGAGTCGGTGCT | 1.056
cr420 (nucleic acid, listed as DNA, chemistry not fully specified) guide: GTTTAAGAGCTAAGCTGGAAACAGCATAGCAAGTTTAAATAAGGCTAGTCCGTTATCAACTTGAAAAAGTGTGACCTAGTAGGTCAT | 0.8229

Source: patent publication US20220259593A1, “CONTROL OF MAMMALIAN GENE DOSAGE USING CRISPR” (The Regents of the University of California, priority 2019, published 2022)
